In assay [1] the target is T1, 人PD-L1-His重组蛋白 (human, UniProt Q9NZQ7 19-238).
T1 construct: range 19-238; also called 人PD-L1胞外区结构域重组蛋白; 重组人PD-L1; not shown: His tag
The assay can be described thus: BLI (Fortebio Octet QKe), antibody captured on AHC probe, human PD-L1-His 100 nM, 1:1 Langmuir fit.

In assay [2] the target is T1, 人PD-L1-His重组蛋白. The assay can be described thus: BLI (Fortebio Octet QKe), antibody captured on AHC probe, human PD-L1-His 50 nM and 20 nM, 1:1 Langmuir fit. (Biolayer interferometry detects binding as a change in optical thickness at a sensor tip.)
For a further assay, the target named is T2, CTLA4-His (human, UniProt P16410 36-162).
T2 construct: Bought protein; also called Cat:11159-H08H; not shown: His tag
T2 sequence (looked up): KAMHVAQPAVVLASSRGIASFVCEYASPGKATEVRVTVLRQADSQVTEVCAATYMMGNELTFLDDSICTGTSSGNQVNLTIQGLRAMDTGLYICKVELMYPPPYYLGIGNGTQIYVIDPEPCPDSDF
The assay can be described thus: ELISA; protein coated at 2 ug/mL. For orientation: In an ELISA, binding on a coated surface is turned into a signal by an enzyme label.

In the next assay the target is T3, 重组人CD28 (human, UniProt P10747 19-152).
T3 construct: Bought protein; also called Cat:11524-HCCH
The assay can be described thus: ELISA; protein coated at 2 ug/mL.

A further assay deals with T4, B7H3-His (human, UniProt Q5ZPR3 29-239).
T4 construct: range 29-239; not shown: His tag
T4 sequence (looked up): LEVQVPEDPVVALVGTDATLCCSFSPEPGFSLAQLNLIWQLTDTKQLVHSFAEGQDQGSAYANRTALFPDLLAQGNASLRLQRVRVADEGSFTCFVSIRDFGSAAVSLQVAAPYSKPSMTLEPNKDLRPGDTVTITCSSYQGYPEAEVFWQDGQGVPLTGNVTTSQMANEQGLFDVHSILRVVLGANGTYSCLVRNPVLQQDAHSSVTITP
The assay can be described thus: ELISA; protein coated at 2 ug/mL.

In a further assay the target is T5, PD-L2-hFc (human, UniProt Q9BQ51 20-220).
T5 construct: range 20-220; not shown: human Fc (hFc)
T5 sequence (looked up): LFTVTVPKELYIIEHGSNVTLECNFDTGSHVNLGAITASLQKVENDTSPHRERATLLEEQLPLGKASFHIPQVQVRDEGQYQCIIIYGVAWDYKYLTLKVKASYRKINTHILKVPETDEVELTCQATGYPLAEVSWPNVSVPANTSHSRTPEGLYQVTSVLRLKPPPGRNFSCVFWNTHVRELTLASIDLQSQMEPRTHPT
The assay can be described thus: ELISA; protein coated at 2 ug/mL.

Assay [3] addresses T6, 人PD-L1全长(细胞表面表达) (human, UniProt Q9NZQ7 19-290).
T6 construct: whole, on cells; the cell line is named under assay or readout
The assay can be described thus: flow cytometry (MFI) on CHO-PD-L1-CD3L cells, antibody titrated from 30 ug/mL. (Flow cytometry measures light scatter and fluorescence of single cells or particles in a stream.)

Assay [4] addresses T1, 人PD-L1-His重组蛋白. The assay can be described thus: BLI (Fortebio Octet QKe), antibody captured on AHC probe, human PD-L1-His 60 nM, 1:1 Langmuir fit.
In assay [5] the target is T6, 人PD-L1全长(细胞表面表达). The assay can be described thus: cell-based or functional assay.
The next assay has as its target T7, 人PD-L1/mFc重组蛋白 (human, UniProt Q9NZQ7 19-238).
T7 construct: range 19-238; not shown: mouse Fc (mFc)
The assay can be described thus: competition ELISA; PD-1-hFc coated, PD-L1-mFc 1 ug/mL, antibody titrated from 4.5 ug/mL.

Changes are numbered by the printed parent chain.

T1 sequence (Q9NZQ7 19-238 limits assumed): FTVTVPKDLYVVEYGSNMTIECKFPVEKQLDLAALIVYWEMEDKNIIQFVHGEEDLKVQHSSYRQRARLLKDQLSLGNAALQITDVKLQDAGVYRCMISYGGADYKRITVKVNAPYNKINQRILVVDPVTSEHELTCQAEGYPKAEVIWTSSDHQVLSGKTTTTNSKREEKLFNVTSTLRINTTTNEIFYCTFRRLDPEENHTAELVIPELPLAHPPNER
T3 sequence (P10747 19-152 limits assumed): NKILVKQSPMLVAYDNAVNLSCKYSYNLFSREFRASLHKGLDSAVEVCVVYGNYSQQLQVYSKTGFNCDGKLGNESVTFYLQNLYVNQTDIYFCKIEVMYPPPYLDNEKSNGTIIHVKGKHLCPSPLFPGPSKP
T7 sequence (Q9NZQ7 19-238 limits assumed): as the sequence (Q9NZQ7 19-238 limits assumed) above

B1: 嵌合抗体Ch182 (antibody, human IgG1, V domains shown)
VH: EVQLQQSGAELVKPGASVKLSCTVSGFNIKDIYMHWLKQRPEQGLEWIGRIDPANGNTKYDPKFQDKATMIADTSSNTAYLQLSSLTSEDTAVYYCASGQLGPLGFDYWGQGTTLTVSS
VL: DIQMTQTTSSLSASLGDRVTISCRASQDISNYLNWYQQKPDGTVKLLIYYTSRLHSGVPSRFSGSGSGTDYSLTISNLEQEDIATYFCQQGNTLPYTFGGGTKLEIK
B1: the Kd (in general, the concentration at which binding is half-saturated) with 人PD-L1-His重组蛋白 [1] is 2.14 nM; in the assay with 人PD-L1-His重组蛋白 [2] it was around 2.02 nM.

B2: 182鼠抗体 (antibody, V domains shown)
VH: B1 VH
VL: B1 VL
notes: Tested as hybridoma supernatant or as purified mouse antibody; also called m182
Regarding B2, the binding result in the assay with CTLA4-His, in the assay with 重组人CD28, with B7H3-His and in the assay with PD-L2-hFc was “no binding (tested: 1ug/ml)” in each case.

B3: H182-MUT4 (antibody, human IgG1, kappa, V domains shown)
VH: EVQLVQSGAEVKKPGATVKISCKVSGFNIKDIYMHWVQQAPGKGLEWMGRIDPANANTKYDPKFQDRVTITADTSTNTAYMELSSLRSEDTAVYYCASGQLGPLGFDYWGQGTTVTVSS
VL: DIQMTQSPSSLSASVGDRVTITCRASQDISNYLNWYQQKPGKAPKLLLYYTSRLHSGVPSRFSGSGSGTDYTLTISSLQPEDFATYFCQQGAGRPYTFGGGTKVEIKR
notes: also called h182-LCDR3-4+h182-HCDR2-3
With B3, the midpoint of the response with 人PD-L1全长(细胞表面表达) [3], the EC50, lay at 0.658 nM. For the same molecule, the Kd with 人PD-L1-His重组蛋白 [4] was 0.465 nM. Moreover, the “ADCC EC50 (MDA-MB-231 target cells, NK92 effector cells, calcein release)” value with 人PD-L1全长(细胞表面表达) [5] was 0.96 ng/mL. Moreover, in the assay with 人PD-L1/mFc重组蛋白, the IC50 (as a rule, the concentration at which inhibition is half-maximal) turned out to be 6.24 nM.

B4: h182 (antibody, V domains shown)
VH: B3 VH with A56G
VL: B3 VL with A92N, G93T, R94L
In the assay with 人PD-L1-His重组蛋白 [1], B4 displayed a Kd of 3.64 nM.

B5: 182-3 (antibody, human IgG1, V domains shown)
VH: B1 VH
VL: B3 VL with F87Y, A92N, G93T, R94L
notes: also called h182L1 + Ch182H
The molecule B5 returned a Kd with 人PD-L1-His重组蛋白 [1] of 4.77 nM.

B6: 182-7 (antibody, V domains shown)
VH: B3 VH with A56G, N77D, S98T
VL: B3 VL with A92N, G93T, R94L
Regarding B6, binding in the assay with 人PD-L1-His重组蛋白 [1] was put at a Kd of 5.68 nM.

B7: 182-4 (antibody, V domains shown)
VH: B3 VH with A56G, N77D, S98T
VL: B3 VL with F87Y, A92N, G93T, R94L
For B7, in the assay with 人PD-L1-His重组蛋白 [1], the equilibrium dissociation constant (Kd) was 8.19 nM.

B8: 182-1 (antibody, V domains shown)
VH: B3 VH with A56G, N77D, S98T
VL: DIQMTQTTSSLSASLGDRVTISCRASQDISNYLNWYQQKPDGTVKLLIYYTSRLHSGVPSRFSGSGSGTDYSLTISNLEQEDIATYFCQQGNTLPYTFGGGTKLEIKR
Regarding B8, the Kd in the assay with 人PD-L1-His重组蛋白 [1] was determined as 5.82 nM.

B9: 182-2 (antibody, V domains shown)
VH: B3 VH with A56G
VL: B8 VL
B9: the equilibrium dissociation constant (Kd) with 人PD-L1-His重组蛋白 [1] is 1.93 nM.

B10: 182-5 (antibody, V domains shown)
VH: B3 VH with A56G
VL: B3 VL with F87Y, A92N, G93T, R94L
In the assay with 人PD-L1-His重组蛋白 [1], B10 had a dissociation constant Kd of 3.43 nM.

B11: 182-6 (antibody, human IgG1, V domains shown)
VH: B1 VH
VL: B3 VL with A92N, G93T, R94L
notes: also called h182L2 + Ch182H
The molecule B11 came in with a Kd with 人PD-L1-His重组蛋白 [1] of 4.64 nM.

Values taken from CN113121686A (MABWELL SHANGHAI BIOTECHNOLOGY CO LTD, dated 2021).
